# Key:
# ATPAF1 (human) = ATPAF1 (human) (UniProt Q5TC12); test: BioID-MS
# ATPAF2 (human) = ATPAF2 (human) (UniProt Q8N5M1); test: BioID-MS
# Sequence of ATPAF2 (human) (Q8N5M1 41-289 limits assumed): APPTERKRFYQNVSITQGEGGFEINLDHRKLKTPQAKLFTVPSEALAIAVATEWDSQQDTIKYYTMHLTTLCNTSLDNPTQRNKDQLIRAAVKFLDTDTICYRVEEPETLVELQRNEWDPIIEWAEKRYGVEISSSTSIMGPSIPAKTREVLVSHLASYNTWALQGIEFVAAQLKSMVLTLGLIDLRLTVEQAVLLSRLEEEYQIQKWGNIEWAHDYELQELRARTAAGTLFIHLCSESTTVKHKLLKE
# Sequence of ATPAF1 (human) (Q5TC12 58-328 limits assumed): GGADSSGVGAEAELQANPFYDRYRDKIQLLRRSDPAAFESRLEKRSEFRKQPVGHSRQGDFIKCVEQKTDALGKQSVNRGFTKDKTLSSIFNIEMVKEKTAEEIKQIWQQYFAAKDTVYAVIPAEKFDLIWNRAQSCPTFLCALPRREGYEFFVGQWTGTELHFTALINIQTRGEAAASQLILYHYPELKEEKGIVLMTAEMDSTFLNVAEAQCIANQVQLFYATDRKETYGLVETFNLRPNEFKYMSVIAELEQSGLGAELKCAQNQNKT
substance,measurement,setting,value
FlagBirA-ClpP (Y118A) (from UniProt P06709 1-321; Q16740 57-277) (enzyme),Log2 Fold change (vs control),ATPAF1 (human),0.59 log2
same,Log2 Fold change (vs control),ATPAF2 (human),-0.91 log2

# — patent US20220143024A1, “METHODS OF USING IMIPRIDONES” (Board of Regents, The University of Texas System, priority 2019, published 2022)
